Results published in article PMC5647336.

Biological target: Hp-chimMotB (soluble chimeric variant of Helicobacter pylori MotB with the transmembrane helix replaced by a GCN4-derived leucine zipper) (S. cerevisiae | Helicobacter pylori) (UniProt P03069)
Experiment: SAXS; Hp-chimMotB at 0.05, 0.11 and 0.25 mg/mL in 100 mM sodium acetate pH 4.6, 200 mM NaCl, room temperature; MW from I(0) (Guinier, P(r)) and Porod volume compared with the theoretical dimer mass

With “Hp-chimMotB (soluble chimeric variant of Helicobacter pylori MotB with the transmembrane helix replaced by a GCN4-derived leucine zipper) (from UniProt P03069 249-279; P56427 41-257)” the stoichiometry N was 2.
